Results as given in paper PMC10855146, “Secondary Modification of S100B Influences Anti Amyloid-β Aggregation Activity and Alzheimer’s Disease Pathology” (International Journal of Molecular Sciences, 2024).

Tests used:
[1] = target: the molecule itself; assay: SEC; analytical size-exclusion chromatography, Superdex 75 Tricorn, room temperature, 1 mL/min, 50 mM TrisHCl pH 7.4, imidazole as internal standard
[2] = target: Human recombinant amyloid beta 42 (human, UniProt P05067 672-713); assay: cell-based or functional assay
Chain of Human recombinant amyloid beta 42 (P05067 672-713): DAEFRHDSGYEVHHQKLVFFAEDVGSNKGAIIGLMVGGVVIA

Row | Binder | stoichiometry N [1] | half-time of ThT-monitored aggregation of monomeric Aβ42 (5 μM) with a 10-fold excess of S100B (0.9 h for Aβ42 alone) [2] | blocking of Aβ42 fibril elongation in seeded ThT aggregation assays (5 μM Aβ42, 4-fold excess of S100Box, 0.04 µM pre-formed fibrils), against S100B [2] | half-time of ThT-monitored aggregation of monomeric Aβ42 (5 μM) with a 10-fold excess of S100Box (0.9 h for Aβ42 alone) [2]
1 | Human S100B (natural protein, UniProt P04271 1-92, looked up, S100B, human, recombinant; also called non-oxidized S100B; unmodified S100B; source: apo form eluted on Superdex S75) MSELEKAMVALIDVFHQYSGREGDKHKLKKSELKELINNELSHFLEEIKEQEVVDKVMETLDNDGDGECDFQEFMAFVAMVTTACHEFFEHE | 2 | 4.5 h |  | 
2 | Oxidized S100B (HClO-treated recombinant human S100B) (natural protein, UniProt P04271 1-92, looked up, up to three methionine sulfoxide residues per S100Box monomer (positions not given); no Cys oxidation, S100B, human, recombinant, oxidized with HClO; also called S100Box; S100ox) MSELEKAMVALIDVFHQYSGREGDKHKLKKSELKELINNELSHFLEEIKEQEVVDKVMETLDNDGDGECDFQEFMAFVAMVTTACHEFFEHE | 2 |  | ~3 fold against S100B | 8.5 h
